The source of these data is patent US8026218 (UNIVERSITY OF ARIZONA, dated 2011).

Square brackets hold non-standard residues; d marks the D form. Ends that are not written are not given here. * marks the point of attachment. Glc = O-glucosyl on Ser side chain (Ser(OGlu)/Ser(OGlc)); NMeBn(3,5-(CF3)2) = CN(Cc1cc(C(F)(F)F)cc(C(F)(F)F)c1)*; OBzl(3,5-(CF3)2) = FC(F)(F)c1cc(CO*)cc(C(F)(F)F)c1; NH‑Bn(CF3)2 = C-terminal Bn(CF3)2 amide; Dmt = Cc1cc(O)cc(C)c1C[C@H](N)C(=O)O; NMe(benzyl) = CN(Cc1ccccc1)*; Nle = CCCC[C@H](N)C(=O)O; NHBn = c1ccc(CN*)cc1

The chains are these.
B1: Tyr[DPenGlyPhePen]ProLeuTrpNHBn(CF3)2 (TY046) (peptide)
peptide: YXGFXPLW
modifications: D-Pen (D-penicillamine) at 2 (X); Pen (L-penicillamine) at 5 (X); disulfide 2-5 (cyclic); C-terminal NH-Bn(CF3)2 amide

For the first assay, the target named is T1, human δ opioid receptor (human, UniProt P41143 1-372). Briefly: cell-based or functional assay.
T1 sequence (P41143 whole entry, stated change not applied): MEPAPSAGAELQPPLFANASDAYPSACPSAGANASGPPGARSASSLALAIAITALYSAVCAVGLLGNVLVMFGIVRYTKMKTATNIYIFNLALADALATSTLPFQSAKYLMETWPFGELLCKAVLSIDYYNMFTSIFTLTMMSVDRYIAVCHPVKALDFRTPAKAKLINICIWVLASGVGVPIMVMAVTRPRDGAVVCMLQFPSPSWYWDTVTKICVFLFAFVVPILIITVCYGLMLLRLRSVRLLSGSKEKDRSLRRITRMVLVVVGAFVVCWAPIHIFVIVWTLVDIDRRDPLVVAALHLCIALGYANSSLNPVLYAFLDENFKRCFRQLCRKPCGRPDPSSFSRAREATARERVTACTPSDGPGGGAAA
As to Y[dA]GFFPLW-{NMeBn(3,5-(CF3)2)} [TyrDAlaGlyPhePheProLeuTrpNMeBn(CF3)2 (TY017)], the “GTP binding hDOR EC50” value is 122 nM and the “GTP binding hDOR Emax” value was found to be 125%.

For the molecule Y[dA]GFGPLW-{OBzl(3,5-(CF3)2)} [TyrDAlaGlyPheGlyProLeuTrpOBn(CF3)2 (TY006)], the “GTP binding hDOR EC50” value came out at 50.2 nM and the “GTP binding hDOR Emax” value is 33.6%.

Consider [Dmt][dA]GFMPLW-NHBn [DmtDAlaGlyPheMetProLeuTrpNHBn (TY034)], for which the “GTP binding hDOR EC50” value is 0.3 nM.

Turning to B1, the “GTP binding hDOR EC50” value was 17.2 nM and the “GTP binding hDOR Emax” value stood at 15%.

For the next assay, the target named is T2, rat µ opioid receptor (rat, UniProt P33535 1-398). Briefly: cell-based or functional assay.
T2 sequence (P33535 whole entry): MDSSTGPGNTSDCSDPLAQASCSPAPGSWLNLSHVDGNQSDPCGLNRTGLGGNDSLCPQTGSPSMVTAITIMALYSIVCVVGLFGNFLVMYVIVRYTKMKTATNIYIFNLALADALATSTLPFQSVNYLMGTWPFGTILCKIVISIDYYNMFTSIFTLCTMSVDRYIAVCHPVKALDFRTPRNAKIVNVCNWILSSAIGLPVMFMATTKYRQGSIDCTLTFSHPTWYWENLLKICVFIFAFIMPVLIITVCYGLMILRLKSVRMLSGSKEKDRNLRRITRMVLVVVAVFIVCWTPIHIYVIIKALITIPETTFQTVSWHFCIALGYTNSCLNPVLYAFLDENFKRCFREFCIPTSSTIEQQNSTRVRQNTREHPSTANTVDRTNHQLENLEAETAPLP
As for [Dmt][dA]GF[Nle]PS(Glc)W-{NH‑Bn(CF3)2} [DmtDAlaGlyPheNleProSer(OGlu)TrpNHBn(CF3)2 (TY056)], the “GTP binding rMOR EC50” value came to 44.9 nM and the “GTP binding rMOR Emax” value was found to be 66%.

For the molecule Y[dA]GFFPLW-{NMeBn(3,5-(CF3)2)} [TyrDAlaGlyPhePheProLeuTrpNMeBn(CF3)2 (TY017)], the “GTP binding rMOR EC50” value came to 349 nM and the “GTP binding rMOR Emax” value is 62.4%.

Turning to Y[dA]GFGPLW-{OBzl(3,5-(CF3)2)} [TyrDAlaGlyPheGlyProLeuTrpOBn(CF3)2 (TY006)], the “GTP binding rMOR EC50” value was 41.7 nM and the “GTP binding rMOR Emax” value was found to be 35.9%.

Regarding [Dmt][dA]GFMPLW-NHBn [DmtDAlaGlyPheMetProLeuTrpNHBn (TY034)], the “GTP binding rMOR EC50” value worked out at 0.4 nM.

With YXGFXPLW (D-Pen at 2 and 5 (X); disulfide 2-5 (cyclic); C-terminal NH-Bn(CF3)2 amide) [Tyr[DPenGlyPheDPen]ProLeuTrpNHBn(CF3)2 (TY049)], the “GTP binding rMOR Emax” value turned out to be 25%.

For another assay, the target named is µ opioid receptor of the guinea pig isolated ileum (guinea pig, UniProt P97266 1-98). Put plainly: cell-based or functional assay.
µ opioid receptor of the guinea pig isolated ileum, sequence (P97266 whole entry): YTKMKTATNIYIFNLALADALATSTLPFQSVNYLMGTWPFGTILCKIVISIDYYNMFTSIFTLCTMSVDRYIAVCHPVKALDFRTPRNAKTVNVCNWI
Consider [Dmt][dA]GF[Nle]PS(Glc)W-{NH‑Bn(CF3)2} [DmtDAlaGlyPheNleProSer(OGlu)TrpNHBn(CF3)2 (TY056)], for which the “GPI/LMMP opioid(mu) agonist IC50” value was determined as 24.9 nM.

With Y[dA]GFGPLW-{OBzl(3,5-(CF3)2)} [TyrDAlaGlyPheGlyProLeuTrpOBn(CF3)2 (TY006)], the “GPI/LMMP opioid(mu) agonist IC50” value was 384 nM.

As for [Dmt][dA]GFMPLW-NHBn [DmtDAlaGlyPheMetProLeuTrpNHBn (TY034)], the “GPI/LMMP opioid(mu) agonist IC50” value is 11.4 nM.

For a further assay, the target named is guinea pig NK1 receptor (guinea pig, UniProt P30547 1-407). Briefly: cell-based or functional assay.
guinea pig NK1 receptor, sequence (P30547 whole entry): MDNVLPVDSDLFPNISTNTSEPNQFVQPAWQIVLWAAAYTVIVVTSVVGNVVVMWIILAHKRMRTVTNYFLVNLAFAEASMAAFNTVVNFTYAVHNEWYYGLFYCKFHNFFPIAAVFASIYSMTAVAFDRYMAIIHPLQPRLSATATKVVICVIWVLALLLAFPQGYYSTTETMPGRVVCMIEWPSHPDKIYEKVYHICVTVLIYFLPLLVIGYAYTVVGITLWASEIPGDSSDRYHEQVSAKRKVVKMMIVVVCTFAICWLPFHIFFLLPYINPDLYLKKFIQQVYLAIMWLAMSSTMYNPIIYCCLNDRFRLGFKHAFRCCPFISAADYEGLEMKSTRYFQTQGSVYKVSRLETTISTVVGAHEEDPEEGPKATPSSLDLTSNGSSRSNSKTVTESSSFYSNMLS
With [Dmt][dA]GF[Nle]PS(Glc)W-{NH‑Bn(CF3)2} [DmtDAlaGlyPheNleProSer(OGlu)TrpNHBn(CF3)2 (TY056)], the “GPI/LMMP SP antagonist Ke” value came to 1.2 nM.

For the molecule Y[dA]GFGPLW-{OBzl(3,5-(CF3)2)} [TyrDAlaGlyPheGlyProLeuTrpOBn(CF3)2 (TY006)], the “GPI/LMMP SP antagonist Ke” value was found to be 5.4 nM.

For [Dmt][dA]GFMPLW-NHBn [DmtDAlaGlyPheMetProLeuTrpNHBn (TY034)], the “GPI/LMMP SP antagonist Ke” value was 36.9 nM.

Another assay addresses T2, rat µ opioid receptor. Put plainly: radioligand competition vs [3H]DAMGO, membranes of rMOR cells.
For orientation: Ki means the dissociation constant of the complex between target and ligand, obtained from inhibition or displacement. The low end stands for a stronger hold on the target, the high end for a looser hold on the target. In turn, MPLW-{OBzl(3,5-(CF3)2)} [MetProLeuTrpOBn(CF3)2 (TY036)] registered a Ki of 4550 nM. That is a single-digit micromolar value.

[Dmt][dA]GF[Nle]PS(Glc)W-{NH‑Bn(CF3)2} [DmtDAlaGlyPheNleProSer(OGlu)TrpNHBn(CF3)2 (TY056)] registered a Ki of 1.9 nM. Compared with the last molecule, the Ki is about 2400-fold lower.

As for Y[dC]GFMPLW-{OBzl(3,5-(CF3)2)} [TyrDCysGlyPheMetProLeuTrpOBn(CF3)2 (TY031)], the affinity, expressed as Ki, was 172 nM.

In turn, Y[dA]GFFPLW-{NMeBn(3,5-(CF3)2)} [TyrDAlaGlyPhePheProLeuTrpNMeBn(CF3)2 (TY017)] yielded a Ki of 74.7 nM.

On to Y[dA]GFGPLW-{OBzl(3,5-(CF3)2)} [TyrDAlaGlyPheGlyProLeuTrpOBn(CF3)2 (TY006)], for which the Ki was found to be 27 nM.

[Dmt][dA]GFMPLW-NHBn [DmtDAlaGlyPheMetProLeuTrpNHBn (TY034)] came in with a Ki of 0.14 nM.

For the molecule YXGFXPLW (D-Pen at 2 and 5 (X); disulfide 2-5 (cyclic); C-terminal NH-Bn(CF3)2 amide) [Tyr[DPenGlyPheDPen]ProLeuTrpNHBn(CF3)2 (TY049)], affinity was put at a Ki of 2050 nM.

Take B1: the affinity corresponds to a Ki of 2330 nM.

For the next assay, the target named is T1, human δ opioid receptor. Put plainly: radioligand competition vs [3H]DPDPE, membranes of hDOR cells. (Displacement assays read how much labelled ligand stays bound in the presence of the test substance.)
MPLW-{OBzl(3,5-(CF3)2)} [MetProLeuTrpOBn(CF3)2 (TY036)] yielded an inhibition constant (Ki) of 1280 nM. This lies in the single-digit micromolar range.

Y[dC]GFMPLW-{OBzl(3,5-(CF3)2)} [TyrDCysGlyPheMetProLeuTrpOBn(CF3)2 (TY031)] displayed an inhibition constant Ki of 55.4 nM. Compared with the last molecule, the Ki is about 23-fold lower.

Y[dA]GFFPLW-{NMeBn(3,5-(CF3)2)} [TyrDAlaGlyPhePheProLeuTrpNMeBn(CF3)2 (TY017)]: the Ki turned out to be 26.5 nM.

The molecule Y[dA]GFGPLW-{OBzl(3,5-(CF3)2)} [TyrDAlaGlyPheGlyProLeuTrpOBn(CF3)2 (TY006)] returned a Ki of 36.1 nM.

Molecule [Dmt][dA]GFMPLW-NHBn [DmtDAlaGlyPheMetProLeuTrpNHBn (TY034)] returned a Ki of 0.1 nM.

In the case of B1, the Ki came to 1.7 nM.

For another assay, the target named is T3, human NK1 receptor (human, UniProt P25103 1-407).
T3 construct: whole, on cells; Assayed as membrane preparations of transfected CHO cells; also called hNK1; human neurokinin-1 receptor
Briefly: competition vs [3H]substance P, membranes of hNK1-transfected CHO cells.
T3 sequence (P25103 whole entry): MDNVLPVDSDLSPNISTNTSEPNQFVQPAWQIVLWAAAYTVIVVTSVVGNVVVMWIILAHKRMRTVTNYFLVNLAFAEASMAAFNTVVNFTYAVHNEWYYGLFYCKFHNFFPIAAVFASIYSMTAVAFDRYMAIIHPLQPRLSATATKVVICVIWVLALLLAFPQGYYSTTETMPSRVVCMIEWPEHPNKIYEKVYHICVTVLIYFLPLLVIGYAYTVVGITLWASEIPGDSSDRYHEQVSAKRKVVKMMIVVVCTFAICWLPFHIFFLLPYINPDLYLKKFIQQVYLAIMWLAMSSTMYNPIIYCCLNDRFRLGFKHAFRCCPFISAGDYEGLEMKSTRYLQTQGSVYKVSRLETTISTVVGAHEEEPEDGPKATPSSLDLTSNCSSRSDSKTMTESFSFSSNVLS
In the case of H-Y[dA]GFPLW-NHBn (also: TFA salt, TFA salt; also called TY008) [H-Tyr-DAla-Gly-Phe-Pro-Leu-Trp-NH-Bzl], the affinity corresponds to a Ki of 14 nM.

For the molecule H-Y[dA]GFPLW-{NMe(benzyl)} (also: TFA salt, TFA salt; also called TY010) [H-Tyr-D-Ala-Gly-Phe-Pro-Leu-Trp-NMe-Bzl], the Ki came out at 1.6 nM and the LogIC50 is -8.5.

A further assay has as its target T4, human NK1 receptor (human, UniProt P25103 1-407).
T4 construct: whole, on cells; Used as membrane preparations of transfected CHO cells; also called hNK1; human neurokinin-1 receptor
Briefly: radioligand competition vs [3H]substance P, membranes of hNK1 CHO cells.
T4 sequence (P25103 whole entry): as above
For the molecule [Dmt][dA]GF[Nle]PS(Glc)W-{NH‑Bn(CF3)2} [DmtDAlaGlyPheNleProSer(OGlu)TrpNHBn(CF3)2 (TY056)], the Ki came out at 0.0017 nM.

Y[dC]GFMPLW-{OBzl(3,5-(CF3)2)} [TyrDCysGlyPheMetProLeuTrpOBn(CF3)2 (TY031)]: the Ki was 0.847 nM.

On to Y[dA]GFFPLW-{NMeBn(3,5-(CF3)2)} [TyrDAlaGlyPhePheProLeuTrpNMeBn(CF3)2 (TY017)], for which the affinity, expressed as Ki, was 0.213 nM. This Ki lies about 4-fold lower than the previous one.

Molecule Y[dA]GFGPLW-{OBzl(3,5-(CF3)2)} [TyrDAlaGlyPheGlyProLeuTrpOBn(CF3)2 (TY006)] yielded a Ki of 0.016 nM. Compared with the last molecule, the Ki is about 13-fold lower.

Regarding [Dmt][dA]GFMPLW-NHBn [DmtDAlaGlyPheMetProLeuTrpNHBn (TY034)], the affinity, expressed as Ki, was 2.39 nM.

In the case of YXGFXPLW (D-Pen at 2 and 5 (X); disulfide 2-5 (cyclic); C-terminal NH-Bn(CF3)2 amide) [Tyr[DPenGlyPheDPen]ProLeuTrpNHBn(CF3)2 (TY049)], the Ki was determined as 0.18 nM. Against the preceding molecule, the Ki is about 13-fold lower.

On to B1, for which the Ki was found to be 0.0053 nM.

For a further assay, the target named is T5, rat NK1 receptor (rat, UniProt P14600 1-407).
T5 construct: whole, on cells; Used as membrane preparations of transfected CHO cells; also called rNK1; rat neurokinin-1 receptor
T5 sequence (P14600 whole entry): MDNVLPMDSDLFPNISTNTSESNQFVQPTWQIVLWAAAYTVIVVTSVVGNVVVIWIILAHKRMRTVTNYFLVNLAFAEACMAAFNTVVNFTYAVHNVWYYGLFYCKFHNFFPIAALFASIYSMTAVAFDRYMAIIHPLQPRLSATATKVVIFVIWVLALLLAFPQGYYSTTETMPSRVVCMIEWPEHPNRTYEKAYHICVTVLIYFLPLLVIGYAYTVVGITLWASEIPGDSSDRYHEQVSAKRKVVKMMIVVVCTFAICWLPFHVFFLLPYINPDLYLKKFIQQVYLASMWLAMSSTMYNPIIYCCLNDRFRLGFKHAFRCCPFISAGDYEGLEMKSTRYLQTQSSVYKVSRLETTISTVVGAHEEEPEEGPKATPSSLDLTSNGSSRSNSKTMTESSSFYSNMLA
Briefly: radioligand competition vs [3H]substance P, membranes of rNK1 CHO cells.
MPLW-{OBzl(3,5-(CF3)2)} [MetProLeuTrpOBn(CF3)2 (TY036)] showed a Ki of 0.99 nM.

For [Dmt][dA]GF[Nle]PS(Glc)W-{NH‑Bn(CF3)2} [DmtDAlaGlyPheNleProSer(OGlu)TrpNHBn(CF3)2 (TY056)], affinity was put at a Ki of 10.1 nM. Compared with the last molecule, the Ki is about 10-fold higher.

Y[dC]GFMPLW-{OBzl(3,5-(CF3)2)} [TyrDCysGlyPheMetProLeuTrpOBn(CF3)2 (TY031)] showed a Ki of 7.06 nM. This Ki and that of the molecule before are within 1.5-fold of each other.

Molecule Y[dA]GFFPLW-{NMeBn(3,5-(CF3)2)} [TyrDAlaGlyPhePheProLeuTrpNMeBn(CF3)2 (TY017)] displayed a Ki of 0.57 nM.

Y[dA]GFGPLW-{OBzl(3,5-(CF3)2)} [TyrDAlaGlyPheGlyProLeuTrpOBn(CF3)2 (TY006)] gave a Ki of 1 nM.

In turn, [Dmt][dA]GFMPLW-NHBn [DmtDAlaGlyPheMetProLeuTrpNHBn (TY034)] came in with a Ki of 317 nM.

YXGFXPLW (D-Pen at 2 and 5 (X); disulfide 2-5 (cyclic); C-terminal NH-Bn(CF3)2 amide) [Tyr[DPenGlyPheDPen]ProLeuTrpNHBn(CF3)2 (TY049)] came in with a Ki of 4.54 nM.
